This is an account of results in PMC10448441.

For the data set, the target named is T1, Integrin beta3 (CD61, GP3A), overexpressed on A549-ITGB3-OE cells (Homo sapiens) (UniProt P05106).
T1 sequence: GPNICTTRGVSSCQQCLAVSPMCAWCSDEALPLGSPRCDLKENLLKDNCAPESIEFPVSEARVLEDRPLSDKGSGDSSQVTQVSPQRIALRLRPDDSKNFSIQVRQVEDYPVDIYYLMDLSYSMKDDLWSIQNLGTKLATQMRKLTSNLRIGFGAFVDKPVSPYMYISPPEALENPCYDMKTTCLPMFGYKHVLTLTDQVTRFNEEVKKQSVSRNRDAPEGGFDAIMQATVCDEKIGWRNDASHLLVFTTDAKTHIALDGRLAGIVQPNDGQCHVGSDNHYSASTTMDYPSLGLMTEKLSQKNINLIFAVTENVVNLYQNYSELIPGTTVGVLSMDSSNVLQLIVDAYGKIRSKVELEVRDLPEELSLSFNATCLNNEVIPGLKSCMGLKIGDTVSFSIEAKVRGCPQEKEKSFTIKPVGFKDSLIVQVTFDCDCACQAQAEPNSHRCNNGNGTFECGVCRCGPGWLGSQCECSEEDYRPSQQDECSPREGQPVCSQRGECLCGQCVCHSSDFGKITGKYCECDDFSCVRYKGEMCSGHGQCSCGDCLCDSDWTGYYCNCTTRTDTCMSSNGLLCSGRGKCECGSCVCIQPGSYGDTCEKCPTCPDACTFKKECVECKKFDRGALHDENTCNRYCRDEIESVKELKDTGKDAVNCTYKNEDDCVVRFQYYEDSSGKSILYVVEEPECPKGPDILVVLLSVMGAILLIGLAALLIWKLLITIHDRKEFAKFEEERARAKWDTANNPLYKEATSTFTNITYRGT
The experiment in a line: flow cytometry. As to conditions: live A549-ITGB3-OE cells, FAM label; PBS with 5 mM MgCl2, 4.5 g/L glucose, 100 ug/mL tRNA; 4 C, 30 min; pH not stated; pull-down on ice 30 min.

By Kd is commonly meant the concentration at which binding is half-saturated. High values mean lower affinity, low ones higher affinity. The sequence “TTCAGCACTCCACGCATAGCTCCACGATGTAGGATCCACATGAGCGCTCCTGTTACCCTGCCTATGCGTGCTACCGTGAA [S10]” returned a Kd of 71.4 nM.

As to “TCCACGATGTAGGATCCACATGAGCGCTCCTGTTACCCTG [S10yh2]”, the Kd was determined as 61.2 nM.
